Article PMC4603552
Read-outs that look alike come from different tables or passages of the source.

| Substance | other (SUMOylation at K65) | other (SUMOylation at K160) |
| --- | --- | --- |
| PML (PML-IV): K65R (FLAG-PML-IV-GFP, CHO-K1) | decreases |  |
| PML (PML-IV): K65R in FLAG-PML-IV (aa 49-633) | decreases |  |
| PML (PML-IV): K160R (FLAG-PML-IV-GFP, CHO-K1) |  | decreases |
